In the supplement of paper PMC10567573:

B1: INTS4 (parent)
chain: AKQIMEETYKMEFMYSGVENKQVV

Variants of: B1
Test: protein stability index of a GFP-peptide fusion (GPS, HEK-293T) (PSI 1-6); higher = more stable
Conditions: c terminus: a fixed tail appended
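Further: lentivirally expressed fusions sorted by FACS into six bins by GFP to DsRed ratio, PSI derived from sequencing read proportions per bin multiplied by bin number.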

**Q.** Which protein stability index does the source give for AKQIMEETGKMEFMYSGVENKQVV [Y9G] here?
**A.** 3.84

**Q.** Which protein stability index does the source give for AKQIMEETIKMEFMYSGVENKQVV [Y9I] here?
**A.** 2.02

**Q.** Which protein stability index does the source give for AKQIMEETSKMEFMYSGVENKQVV [Y9S] here?
**A.** 3.9

**Q.** For AKQIMEETRKMEFMYSGVENKQVV [Y9R], which protein stability index is on record?
**A.** 3.84

**Q.** With AKQIMEETCKMEFMYSGVENKQVV [Y9C] as the variant, how does the protein stability index read?
**A.** 2.31

**Q.** Which protein stability index does the source give for AKQIMEETWKMEFMYSGVENKQVV [Y9W] here?
**A.** 2.18

**Q.** For AKQIMEETFKMEFMYSGVENKQVV [Y9F], which protein stability index is on record?
**A.** 2.26

**Q.** With AKQIMEETQKMEFMYSGVENKQVV [Y9Q] as the variant, how does the protein stability index read?
**A.** 4.41

**Q.** Which protein stability index does the source give for ATQIMEETYKMEFMYSGVENKQVV [K2T] here?
**A.** 2.54

**Q.** With AIQIMEETYKMEFMYSGVENKQVV [K2I] as the variant, how does the protein stability index read?
**A.** 2.81

**Q.** Which protein stability index does the source give for APQIMEETYKMEFMYSGVENKQVV [K2P] here?
**A.** 2.62

**Q.** With AAQIMEETYKMEFMYSGVENKQVV [K2A] as the variant, how does the protein stability index read?
**A.** 1.89

**Q.** With AKQIMEETYKMEDMYSGVENKQVV [F13D] as the variant, how does the protein stability index read?
**A.** 4.6

**Q.** For AKQIMEETYKMEQMYSGVENKQVV [F13Q], which protein stability index is on record?
**A.** 3.12

**Q.** Which protein stability index does the source give for AKQIMEETYKMELMYSGVENKQVV [F13L] here?
**A.** 2.26

**Q.** Which protein stability index does the source give for AKQIMEETYKMEHMYSGVENKQVV [F13H] here?
**A.** 4.01

**Q.** For AKQIMEETYKMEPMYSGVENKQVV [F13P], which protein stability index is on record?
**A.** 3.66

**Q.** For AKQIMEETYKMESMYSGVENKQVV [F13S], which protein stability index is on record?
**A.** 4.24

**Q.** For AKQIMEETYKMEAMYSGVENKQVV [F13A], which protein stability index is on record?
**A.** 4.23

**Q.** For AKQIMEETYKMEEMYSGVENKQVV [F13E], which protein stability index is on record?
**A.** 4.3

**Q.** For AKQIMEETYKMEFMYSGVENNQVV [K21N], which protein stability index is on record?
**A.** 2.25

**Q.** With AKQIMEETYKMEFMYSGVENGQVV [K21G] as the variant, how does the protein stability index read?
**A.** 2.5

**Q.** For AKQIMEETYKMEFMYSGVENMQVV [K21M], which protein stability index is on record?
**A.** 2.07

**Q.** Which protein stability index does the source give for AKQIMESTYKMEFMYSGVENKQVV [E7S] here?
**A.** 1.67

**Q.** For AKQIMEVTYKMEFMYSGVENKQVV [E7V], which protein stability index is on record?
**A.** 2.97

**Q.** For AKQIMEITYKMEFMYSGVENKQVV [E7I], which protein stability index is on record?
**A.** 2.35

**Q.** For AKQIMETTYKMEFMYSGVENKQVV [E7T], which protein stability index is on record?
**A.** 1.96

**Q.** For AKQIMERTYKMEFMYSGVENKQVV [E7R], which protein stability index is on record?
**A.** 2.55

**Q.** Which protein stability index does the source give for AKQIMENTYKMEFMYSGVENKQVV [E7N] here?
**A.** 1.9

**Q.** For AKQIMEATYKMEFMYSGVENKQVV [E7A], which protein stability index is on record?
**A.** 2.04

**Q.** For AKQIMEHTYKMEFMYSGVENKQVV [E7H], which protein stability index is on record?
**A.** 1.7

**Q.** With AKQIMEWTYKMEFMYSGVENKQVV [E7W] as the variant, how does the protein stability index read?
**A.** 3.34

**Q.** Which protein stability index does the source give for AKQPMEETYKMEFMYSGVENKQVV [I4P] here?
**A.** 3.39

**Q.** With AKQRMEETYKMEFMYSGVENKQVV [I4R] as the variant, how does the protein stability index read?
**A.** 2.07

**Q.** For AKQFMEETYKMEFMYSGVENKQVV [I4F], which protein stability index is on record?
**A.** 3

**Q.** For AKQQMEETYKMEFMYSGVENKQVV [I4Q], which protein stability index is on record?
**A.** 2.3

**Q.** For AKQTMEETYKMEFMYSGVENKQVV [I4T], which protein stability index is on record?
**A.** 2.9

**Q.** Which protein stability index does the source give for AKQGMEETYKMEFMYSGVENKQVV [I4G] here?
**A.** 2.89

**Q.** With AKQMMEETYKMEFMYSGVENKQVV [I4M] as the variant, how does the protein stability index read?
**A.** 1.9

**Q.** Which protein stability index does the source give for AKQLMEETYKMEFMYSGVENKQVV [I4L] here?
**A.** 1.35

**Q.** With AKQAMEETYKMEFMYSGVENKQVV [I4A] as the variant, how does the protein stability index read?
**A.** 2.39

**Q.** Which protein stability index does the source give for AKQCMEETYKMEFMYSGVENKQVV [I4C] here?
**A.** 2.6

**Q.** For AKQIMEETYKMEFMYSGVENKWVV [Q22W], which protein stability index is on record?
**A.** 1.02

**Q.** Which protein stability index does the source give for AKQIMEETYKMEFMYSGVENKEVV [Q22E] here?
**A.** 1.48

**Q.** Which protein stability index does the source give for AKQIMEETYKMEFMYSGVENKKVV [Q22K] here?
**A.** 1.47

**Q.** For AKQIMEETYKMEFMYSGVENKCVV [Q22C], which protein stability index is on record?
**A.** 2.97

**Q.** Which protein stability index does the source give for AKQIMEETYKMEFMYSGHENKQVV [V18H] here?
**A.** 1.87

**Q.** With AKQIMEETYKMEFMYSGWENKQVV [V18W] as the variant, how does the protein stability index read?
**A.** 1.95

**Q.** Which protein stability index does the source give for AKQIMEETYKMEFMYSGTENKQVV [V18T] here?
**A.** 1.71

**Q.** For AKQIMEETYKMEFMYSGGENKQVV [V18G], which protein stability index is on record?
**A.** 2.12

**Q.** Which protein stability index does the source give for AKQIMEETYKMEFMYSGSENKQVV [V18S] here?
**A.** 2.07

**Q.** With AKQIMEETYKMEFMYSGEENKQVV [V18E] as the variant, how does the protein stability index read?
**A.** 2.78

**Q.** Which protein stability index does the source give for AKQIMEETYKMEFMYSGIENKQVV [V18I] here?
**A.** 1.69

**Q.** Which protein stability index does the source give for AKQIMEETYKMEFMYSGKENKQVV [V18K] here?
**A.** 2.72

**Q.** Which protein stability index does the source give for AKQIMEETYKMEFWYSGVENKQVV [M14W] here?
**A.** 2.02

**Q.** With AKQIMEETYKMEFKYSGVENKQVV [M14K] as the variant, how does the protein stability index read?
**A.** 1.71

**Q.** For AKQIMEETYKMEFGYSGVENKQVV [M14G], which protein stability index is on record?
**A.** 2.43

**Q.** With AKQIMEETYKMEFTYSGVENKQVV [M14T] as the variant, how does the protein stability index read?
**A.** 1.63

**Q.** Which protein stability index does the source give for AKQIMEETYKMEFLYSGVENKQVV [M14L] here?
**A.** 2.17

**Q.** With AKQIMEETYKMEFPYSGVENKQVV [M14P] as the variant, how does the protein stability index read?
**A.** 3.88

**Q.** With AKQIMEETYKMEFNYSGVENKQVV [M14N] as the variant, how does the protein stability index read?
**A.** 1.99

**Q.** Which protein stability index does the source give for AKQIMEETYKMEFSYSGVENKQVV [M14S] here?
**A.** 1.66

**Q.** Which protein stability index does the source give for AKQIMEETYKMEFEYSGVENKQVV [M14E] here?
**A.** 2.54

**Q.** With KKQIMEETYKMEFMYSGVENKQVV [A1K] as the variant, how does the protein stability index read?
**A.** 2.68

**Q.** With PKQIMEETYKMEFMYSGVENKQVV [A1P] as the variant, how does the protein stability index read?
**A.** 3.02

**Q.** Which protein stability index does the source give for CKQIMEETYKMEFMYSGVENKQVV [A1C] here?
**A.** 1.86

**Q.** Which protein stability index does the source give for IKQIMEETYKMEFMYSGVENKQVV [A1I] here?
**A.** 1.42

**Q.** With HKQIMEETYKMEFMYSGVENKQVV [A1H] as the variant, how does the protein stability index read?
**A.** 2.72

**Q.** With VKQIMEETYKMEFMYSGVENKQVV [A1V] as the variant, how does the protein stability index read?
**A.** 2.07

**Q.** Which protein stability index does the source give for NKQIMEETYKMEFMYSGVENKQVV [A1N] here?
**A.** 2.1

**Q.** Which protein stability index does the source give for QKQIMEETYKMEFMYSGVENKQVV [A1Q] here?
**A.** 2.52

**Q.** With TKQIMEETYKMEFMYSGVENKQVV [A1T] as the variant, how does the protein stability index read?
**A.** 2.8

**Q.** For RKQIMEETYKMEFMYSGVENKQVV [A1R], which protein stability index is on record?
**A.** 2.69

**Q.** With FKQIMEETYKMEFMYSGVENKQVV [A1F] as the variant, how does the protein stability index read?
**A.** 1.04

**Q.** For AKQIMEETYKCEFMYSGVENKQVV [M11C], which protein stability index is on record?
**A.** 2.43

**Q.** Which protein stability index does the source give for AKQIMEETYKHEFMYSGVENKQVV [M11H] here?
**A.** 3.56

**Q.** Which protein stability index does the source give for AKQIMEETYKAEFMYSGVENKQVV [M11A] here?
**A.** 1.42

**Q.** For AKQIMEETYKVEFMYSGVENKQVV [M11V], which protein stability index is on record?
**A.** 1.9

**Q.** With AKQIMEETYKQEFMYSGVENKQVV [M11Q] as the variant, how does the protein stability index read?
**A.** 3.2

**Q.** For AKQIMEETYKKEFMYSGVENKQVV [M11K], which protein stability index is on record?
**A.** 3.44

**Q.** With AKQIMEETYKSEFMYSGVENKQVV [M11S] as the variant, how does the protein stability index read?
**A.** 2.37

**Q.** Which protein stability index does the source give for AKQIMEETYKWEFMYSGVENKQVV [M11W] here?
**A.** 2.22

**Q.** For AKQIMEETYKFEFMYSGVENKQVV [M11F], which protein stability index is on record?
**A.** 2.26

**Q.** Which protein stability index does the source give for AKQIMEETYKMEFMYTGVENKQVV [S16T] here?
**A.** 1.56

**Q.** Which protein stability index does the source give for AKQIMEETYKMEFMYIGVENKQVV [S16I] here?
**A.** 2.62

**Q.** Which protein stability index does the source give for AKQIMEETYKMEFMYQGVENKQVV [S16Q] here?
**A.** 1.91

**Q.** For AKQIMEETYKMEFMYRGVENKQVV [S16R], which protein stability index is on record?
**A.** 1.36

**Q.** With AKQIMEETYKMEFMYMGVENKQVV [S16M] as the variant, how does the protein stability index read?
**A.** 2.24

**Q.** With AKQIMEETYKMEFMYGGVENKQVV [S16G] as the variant, how does the protein stability index read?
**A.** 2.14

**Q.** With AKQIMEETYKMEFMYHGVENKQVV [S16H] as the variant, how does the protein stability index read?
**A.** 1.41

**Q.** With AKQIMEETYKMEFMYKGVENKQVV [S16K] as the variant, how does the protein stability index read?
**A.** 1.7

**Q.** Which protein stability index does the source give for AKQIMEETYKMEFMYAGVENKQVV [S16A] here?
**A.** 2.15

**Q.** With AKQIMEETYKMEFMYDGVENKQVV [S16D] as the variant, how does the protein stability index read?
**A.** 1.86

**Q.** Which protein stability index does the source give for AKQIMEETYKMEFMHSGVENKQVV [Y15H] here?
**A.** 1.88
